Source: the supplement of paper PMC7877785
± gives the uncertainty stated by the source.

Experiment: self-splicing fitness, log relative to wild type (ln ratio); higher = more splicing; Tetrahymena group I intron in knt gene, E. coli kanamycin selection, DiMSum; sequences stand for … in CUCUCU…GGAGGGAAAAGUUAUCAGGCAUGCACCUGGUAGCUAGUCUUUAAACCAAUAGAUUGCAUCGGUUUAAAAGGCAAGACCGUCAAAUUGCGGGAAAGGGGUCAACAGCCGUUCAGUACCAAGUCUCAGGGGAAACUUUGAGAUGGCCUUGCAAAGGGUAUGGUAAUAAGCUGACGGACAUGGUCCUAACCACGCAGCCAAGUCCUAAGUCAACAGAUCUUCUGUUGAUAUGGAUGCAGUUCACAGACUAAAUGUCGGUCGGGGAAGAUGUAUUCUUCUCAUAAGAUAUAGUCGGACCUCUCCUUAAUGGGAGCUAGCGGAUGAAGUGAUGCAACACUGGAGCCGCUGGGAACUAAUUUGUAUGCGAAAGUAUAUUGAUUAGUUUUGGAGUACUCGUGGUCG
Procedure, shortened: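 Pooled colonies went to amplicon sequencing on an Illumina HiSeq 2500 after six replicate transformations. The plates were LB agar with 100 μg/mL carbenicillin, 50 μM IPTG and 0.2% rhamnose, with or without 25 μg/mL kanamycin, incubated overnight at 37°C or 30°C. The E. coli BL21(DE3) library had all eight P1ex-region intron nucleotides randomised, the intron placed in the knt kanamycin-resistance gene on pET-22b(+). DiMSum fitness is the error-weighted combination of replicate fold changes, kanamycin against none, normalised to wild type.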

Sequence | self-splicing fitness (ln) (30 °C) | self-splicing fitness (ln) (37 °C)
CGGUAGCAAUAUUACGUUUA | -3.46 ± 0.2 | -2.03 ± 0.13
CUUGAGCAAUAUUACGUCUG | -0.671 ± 0.086 | -0.657 ± 0.11
GCUAAGCAAUAUUACGCCCU | -0.606 ± 0.19 | -0.768 ± 0.15
GUAAAGCAAUAUUACGUUUG | -2.28 ± 0.081 | -1.34 ± 0.094
AACCAGCAAUAUUACGUCGC | -2.34 ± 0.077 | -0.689 ± 0.085
GCGUAGCAAUAUUACGGGAA | -1.38 ± 0.27 | -1.44 ± 0.34
CAACAGCAAUAUUACGCAGG | -2.19 ± 0.11 | -0.807 ± 0.085
CUAAAGCAAUAUUACGUGGC | -2.9 ± 0.12 | -2.05 ± 0.15
UGCCAGCAAUAUUACGACAU | -3.366 ± 0.021 | -1.9 ± 0.035
UCGUAGCAAUAUUACGGAUA | -1.59 ± 0.34 | -1.02 ± 0.28
GUUGAGCAAUAUUACGUCGC | -2.1 ± 0.35 | -1.17 ± 0.29
CAUGAGCAAUAUUACGUAGG | -1.82 ± 0.08 | -1.46 ± 0.093
UCUCAGCAAUAUUACGUUAC | – | -1.86 ± 0.36
AGCUAGCAAUAUUACGUGCC | -2.52 ± 0.36 | -1.84 ± 0.27
AAUUAGCAAUAUUACGGUCG | -0.573 ± 0.099 | -0.259 ± 0.12
AACGAGCAAUAUUACGAGAG | -3.41 ± 0.15 | -1.98 ± 0.16
AACAAGCAAUAUUACGAUAU | -1.42 ± 0.098 | -1.03 ± 0.12
ACGGAGCAAUAUUACGGCAU | – | -1.53 ± 0.23
UUGCAGCAAUAUUACGGUUU | -1.37 ± 0.085 | -0.603 ± 0.085

Sequence | self-splicing fitness (ln) (30 °C) | self-splicing fitness (ln) (37 °C)
UCCGAGCAAUAUUACGGCAG | -3.55 ± 0.38 | -1.44 ± 0.34
GGCCAGCAAUAUUACGCACU | -0.947 ± 0.13 | 0.319 ± 0.16
AUCCAGCAAUAUUACGUUUG | -2.58 ± 0.12 | -2.93 ± 0.18
AGCCAGCAAUAUUACGGGCC | -2.77 ± 0.2 | -3.49 ± 0.46
GUCGAGCAAUAUUACGAUCC | -1.82 ± 0.17 | -0.489 ± 0.22
GCGCAGCAAUAUUACGUCUU | -0.65 ± 0.049 | 0.336 ± 0.064
UACCAGCAAUAUUACGUCUG | -3.46 ± 0.13 | -2.46 ± 0.12
CGCCAGCAAUAUUACGCACU | -2.23 ± 0.14 | -1.47 ± 0.14
GAUAAGCAAUAUUACGACUA | -0.184 ± 0.086 | -0.149 ± 0.1
UUCAAGCAAUAUUACGCUCC | -1.54 ± 0.16 | -1.86 ± 0.24
UUUAAGCAAUAUUACGACUC | -0.391 ± 0.24 | -0.881 ± 0.4
CGCCAGCAAUAUUACGAGUA | -2.79 ± 0.18 | -1.52 ± 0.18
ACAAAGCAAUAUUACGGGAG | -1.72 ± 0.1 | -1.08 ± 0.12
UUUGAGCAAUAUUACGAUAA | -1.25 ± 0.087 | -0.386 ± 0.095
GAUGAGCAAUAUUACGGGGC | -3.24 ± 0.33 | -2.28 ± 0.23
AGCAAGCAAUAUUACGUGAC | -2.49 ± 0.2 | -1.85 ± 0.27
CUGAAGCAAUAUUACGGUAU | -3.66 ± 0.26 | -2.54 ± 0.28
GCUUAGCAAUAUUACGCGUU | -0.427 ± 0.096 | 0.0522 ± 0.1
CCGAAGCAAUAUUACGAGAC | – | -2.52 ± 0.31
